Measured values from patent US20210032320A1.

Assays:
[1] = target: NKp44 isoform 3 (NKp44-3) on NK92-44-3 cells (UniProt O95944); test: cell-based or functional assay
[2] = target: NKp44 isoform 1 (NKp44-1) on NK92-44-1 cells (Homo sapiens (Human)) (UniProt O95944); test: cell-based or functional assay
[3] = target: NKp44 isoform 2 (NKp44-2) on NK92-44-2 cells (UniProt O95944); test: cell-based or functional assay
[4] = target: endogenous cellular PCNA (cell lysates, permeabilised cells, FFPE tissue) (human) (UniProt P12004); test: image stream of HeLa cells, similarity of the AF488 antibody stain to the 7AAD nuclear stain; 190 of 3950 cells
Sequence of UniProt P12004 (P12004 whole entry): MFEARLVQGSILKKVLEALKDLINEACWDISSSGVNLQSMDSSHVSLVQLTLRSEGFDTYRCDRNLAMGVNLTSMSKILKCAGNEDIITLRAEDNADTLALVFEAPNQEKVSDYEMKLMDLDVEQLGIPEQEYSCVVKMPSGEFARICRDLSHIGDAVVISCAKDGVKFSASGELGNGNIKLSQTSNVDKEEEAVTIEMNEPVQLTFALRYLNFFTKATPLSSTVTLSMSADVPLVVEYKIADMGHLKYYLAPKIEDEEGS

relative amount of F-actin accumulating at the immune synapse [1] [%]	relative amount of F-actin accumulating at the immune synapse [2] [%]	relative amount of F-actin accumulating at the immune synapse [3] [%]	%Gated in the gate 'Cytoplasmic PCNA' [4] [%]	Substance
4.6	-22.6	6.9		PCNA over-expressed in HeLa target cells (from UniProt P12004 1-261)
			4.81	commercial anti PCNA mAb clone PC10 (antibody)
